Data published in US20220387572A1 (CRISPR THERAPEUTICS, published 2022).

Biological target: T1, CD70 on human CD70+ renal cell carcinoma cell lines (A498, CD70 high; ACHN, CD70 low) (human, UniProt P32970 1-193)
T1 sequence (looked up): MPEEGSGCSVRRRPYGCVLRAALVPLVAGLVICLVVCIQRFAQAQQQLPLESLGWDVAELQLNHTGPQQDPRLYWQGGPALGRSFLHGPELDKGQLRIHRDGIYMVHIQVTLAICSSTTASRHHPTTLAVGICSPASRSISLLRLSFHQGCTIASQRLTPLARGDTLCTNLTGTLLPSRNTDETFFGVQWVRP
Experiment: cell-based or functional assay

B1: anti-CD70 CAR (CD70B scFv with 41BB), expressed on CTX130 cells (TRAC-/β2M-/CD70-/anti-CD70 CAR+ T cells) (other)
chain: QVQLVQSGAEVKKPGASVKVSCKASGYTFTNYGMNWVRQAPGQGLKWMGWINTYTGEPTYADAFKGRVTMTRDTSISTAYMELSRLRSDDTAVYYCARDYGDYGMDYWGQGTTVTVSSGGGGSGGGGSGGGGSGDIVMTQSPDSLAVSLGERATINCRASKSVSTSGYSFMHWYQQKPGQPPKLLIYLASNLESGVPDRFSGSGSGTDFTLTISSLQAEDVAVYYCQHSREVPWTFGQGTKVEIKSAAAFVPVFLPAKPTTTPAPRPPTPAPTIASQPLSLRPEACRPAAGGAVHTRGLDFACDIYIWAPLAGTCGVLLLSLVITLYCNHRNRKRGRKKLLYIFKQPFMRPVQTTQEEDGCSCRFPEEEEGGCELRVKFSRSADAPAYQQGQNQLYNELNLGRREEYDVLDKRRGRDPEMGGKPRRKNPQEGLYNELQKDKMAEAYSEIGMKGERRRGKGHDGLYQGLSTATKDTYDALHMQALPPR
cell killing (CellTiter-Glo), TRAC-/β2M-/CD70-/anti-CD70 CAR+ T cells on CD70+ A498 cells, 24 h, T cell:A498 ratios 1:1 and 0.5:1: > 90%
cell killing (CellTiter-Glo), TRAC-/β2M-/anti-CD70 CAR+ T cells (2xKO) on CD70+ A498 cells, 24 h, T cell:A498 ratios 1:1 and 0.5:1: < 90%
